Assay results: the DeepSol protein solubility set

Test: soluble on expression in E. coli; label from the status in PepcDB or PDB records

| Sequence | soluble on expression in E. coli |
| --- | --- |
| MGSDKIHHHHHHMLIPLYMRYHESLKPDPIIHDASALRLVPQIDYDFSKFDTAIRSSVGSAIRATYLDSLTKAFIQQHQQPIIVMIGCGLDARHERVGDIGKNVPFYELDLPDVIALRKQLMPPAENEILLAASAFDTDWMDELRSTYPQAQFLFVIEGVLMYFNEAQVKKLFEDLAVRFSGGEIAFDIGSTWMSRNSQKHHDVMKHMRAQFDYGCDDDHEMERWADNLHLISAKYMFDFPAWKRIGLLQAAIMWIVPFVRKSYRFLYYRIS | not soluble |
| VNAYDVLKRHHTVLKGLGRKVGEAPVNSEERHVLFDEMLIELDIHFRIEDDLYYPALSAAGKPITGTHAEHRQVVDQLATLLRTPQRAPGYEEEWNVFRTVLEAHADVEERDMIPAPTPVHITDAELEELGDKMAARIEQLRGSPLYTLRTKGKADLLKAI | not soluble |
| MGSDKIHHHHHHMLTRLEVNCFKNLLGFSVNFGPFNCVAGLNGVGKSNIFDSIKFLSLLADKSIVEAALEVRESDSTDPLDIFWTNGEFRSERLSLAVEMIVPVDVIDDFGRRAKATSTFLRYEVELARDDGERESGSLGLHLVKETLIHINKGEAVDRLRFPMSAAKFRENIVINKRKGAGFISTHQDRDGIVEIHLHQDGGSSGQPQKFPARNAPKTVVSNTNSGVWPTILAARREMQSWRFLSLEPSAMRRSNKIHEEGAVSSGGGRLGAALYKLHRKDPSVYTRVASRLSEIVPTSDIRVDVDQVRQLLTVEVKERSGAFLPARALSDGTLRFLALSIIAEDPDFNGVLCFEEPENGIHPARVGAMLALLKELSVDPHDEVSESNSMRQIVVATHSPVLVSLEEPNDLIFADVVKVKGPNGMPATTIRCKCLRESWRFSDEEGNGIDRASIISYLELPPDRQISLNLKTTGVAINLEATV | not soluble |
| MGSDKIHHHHHHMPPAIAPRFIYCRVCDACGFAARRSRFSGHAASGHRAAASAFLRPRMNVTTSDDCIGVLPDHPWAKHFIVLGYRDGAFSTIPNNFFRNWLDEEAQVGTFHIGRCSGLGVGSIAKYDQGLQKLVIGKNVAGGMRLRFLLNGQHEMRTISTSLFSIYGNGLENAPMPQYPDTVIHNDVWIGDEALFLGGSQIESGCVIGARAVIPPNFRTEAYGIYAGSPARLVRFRFTEKVREKLLQLAWWDMPLDWIKRNNHAFLVDLTANEGRALDTLAALQESKDNATGEAGRQTAAATPV | not soluble |
| MGSDKIHHHHHHMNLYEKLAEDIETSIRQGVYRHGERLPSVRQISQQHRISVTTAIRAYLLLESRGLVTSRPQSGYFVNRRDESERKALELRPSKPIPISSPVDVSRLVLSTLRSIGVDDAVPLGSPYPDPSLFPFERINRYAYDAGRGKAQWGVTDALPPGNAKLVRQIARRYLENGMAVDPNEIIITVGATEAINLCLQAVAKPGDVIAVESPTFYAMLHAIERMGMKAIEVSTHPEHGIDIEALAAIVESQPIAACMVMPNFQNPLGFLMPDERKRELVELLTKRNIPVIENGVYNELHFDSPHPSTLKSFDTKGLVLHCSSFSKSLTSAYRIGWALPGRYRDQVEKLKFLNTLTSPSIPQLAIAEFLERDGFEHHLRKVRKAYAQQANLMKAIVSRFFPEGTRMSNPAGGYVLWVELPPRVDSMRLYKLALDQGITIGPGYMFSVSETTYRNFIRLNYSSPWSGEIEQAVITVGKLVSMCAS | not soluble |
| MKEELIERFTRYVKIDTQSNEDSHTVPTTPGQIEFGKLLVEELKEVGLTEVTMDDNGYVMATLPANTDKDVPVIGFLAHLDTATDFTGKNVKPQIHENFDGNAITLNEELNIVLTPEQFPELPSYKGHTIITTDGTTLLGADDKAGLTEIMVAMNYLIHNPQIKHGKIRVAFTPDEEIGRGPAHFDVEAFGASFAYMMDGGPLGGLEYESFNAAGAKLTFNGTNTHPGTAKNKMRNATKLAMEFNGHLPVEEAPEYTEGYEGFYHLLSLNGDVEQSKAYYIIRDFDRKNFEARKNTIENIVKQMQEKYGQDAVVLEMNDQYYNMLEKIEPVREIVDIAYEAMKSLNIEPNIHPIRGGTDGSQLSYMGLPTPNIFTGGENYHGKFEYVSVDVMEKAVQVIIEIARRFEEQA | not soluble |
| MPHVICEPCIGVKDQSCVEVCPVECIYDGGDQFYIHPEECIDCGACVPACPVNAIYPEEDVPEQWKSYIEKNRKLAGLE | soluble |
| MVIDQTDPIYVLFHDEEWGVPVRDDKKLFELLVFSQALAEFSWPSILRRRDDFRKLFEEFDPSAIAQFTEKRLMSLRVNGCLILSEQKLRAIVENAKSVLKVKQEFGSFSNYCWRFVNHKPLRNGYRYGRQVPVKSPKAEYISKDMMQRGFRCVGPTVMYSFLQASGIVNDHLTACFRYQECNVETERETKSHETETKLDLHSPLLV | soluble |
